Experiment [1] has as its target T1, Mouse profilin 2a, Q9JJV2.
T1 chain: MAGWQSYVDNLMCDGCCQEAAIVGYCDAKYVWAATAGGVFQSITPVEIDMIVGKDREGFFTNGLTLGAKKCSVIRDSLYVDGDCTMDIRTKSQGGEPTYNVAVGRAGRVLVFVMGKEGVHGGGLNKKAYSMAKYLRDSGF
Kind of experiment: sedimentation equilibrium analytical ultracentrifugation. Conditions: chain shown with the change.

A further experiment concerns the target Human profilin 1, P07737. The experiment is described as above. Conditions: chain shown with the change; modeled as a 1:1 interaction.
The mark [2] stands for this setting: two-site, independent binding model with one site fixed to the measured non-specific affinity.

B1: WAVE1 (P): human WAVE1 [277–488], wild-type proline-rich domain, Q92558 P279G; P280S; P281G; P282S; P348G; P349S; P350G; P351S; P354G; P355S; P356G; P357S; … (protein)
chain: MPLVKRNIDPRHLCHTALPRGIKNELECVTNISLANIIRQLSSLSKYAEDIFGELFNEAHSFSFRVNSLQERVDRLSVSVTQLDPKEEELSLQDITMRKAFRSSTIQDQQLFDRKTLPIPLQETYDVCEQPPPLNILTPYRDDGKEGLKFYTNPSYFFDLWKEKMLQDTEDKRKEKRKQKQKNLDRPHEPEKVPRAPHDRRREWQKLAQGPELAEDDANLLHKHIEVANGPASHFETRPQTYVDHMDGSYSLSALPFSQMSELLTRAEERVLVRPHEPGSGSPMHGAGDAKPIPTCISSATGLIENRPQSPATGRTPVFVSPTPPPPPPPLPSALSTSSLRASMTSTGSGSVPGSGSPPATALQAPAVGSGSAPLQIAPGVLHPAGSGIAGSLVQPSPPVARAAPVCETVPVHPLPQGEVQGLPPGSGSPPLGSGGIRPSSPVTVTALAHPPSGLHPTPSTAPGPHVPLMPPSPPSQVIPASEPKRHPSTLPVISDARSVLLEAIRKGIQLRKVEEQREQEAKHERIENDVATILSRRIAVEYSDSEDDSEFDEVDWLE
B1: the Kd in experiment [1] (WAVE1 (PRD [B]) 15.5 µM, Pfn2 91.2, 44.8 and 21.7 µM, 7 K, 10 K, 14 K rpm, 2:1 binding model, Kd1 fit, Kd2 = 138 µM fixed) came to 2.07 µM.

B2: WAVE1 (P): human WAVE1 [277–488], wild-type proline-rich domain, Q92558 P279G; P280S; P281G; P282S; P325G; P326S; P327G; P328S; P348G; P349S; P350G; P351S; … (protein)
chain: MPLVKRNIDPRHLCHTALPRGIKNELECVTNISLANIIRQLSSLSKYAEDIFGELFNEAHSFSFRVNSLQERVDRLSVSVTQLDPKEEELSLQDITMRKAFRSSTIQDQQLFDRKTLPIPLQETYDVCEQPPPLNILTPYRDDGKEGLKFYTNPSYFFDLWKEKMLQDTEDKRKEKRKQKQKNLDRPHEPEKVPRAPHDRRREWQKLAQGPELAEDDANLLHKHIEVANGPASHFETRPQTYVDHMDGSYSLSALPFSQMSELLTRAEERVLVRPHEPGSGSPMHGAGDAKPIPTCISSATGLIENRPQSPATGRTPVFVSPTPGSGSPPLPSALSTSSLRASMTSTGSGSVPGSGSPPATALQAPAVGSGSAPLQIAPGVLHPAPPPIAPPLVQPSPPVARAAPVCETVPVHPLPQGEVQGLPPGSGSPPLGSGGIRPSSPVTVTALAHPPSGLHPTPSTAPGPHVPLMPPSPPSQVIPASEPKRHPSTLPVISDARSVLLEAIRKGIQLRKVEEQREQEAKHERIENDVATILSRRIAVEYSDSEDDSEFDEVDWLE
Consider B2, for which, in experiment [1] (setting [2]), the equilibrium dissociation constant (Kd) amounted to 182 µM.

B3: WAVE1 (P): human WAVE1 [277–488], wild-type proline-rich domain, Q92558 P279G; P280S; P281G; P282S; P325G; P326S; P327G; P328S; P348G; P349S; P350G; P351S; … (protein)
chain: MPLVKRNIDPRHLCHTALPRGIKNELECVTNISLANIIRQLSSLSKYAEDIFGELFNEAHSFSFRVNSLQERVDRLSVSVTQLDPKEEELSLQDITMRKAFRSSTIQDQQLFDRKTLPIPLQETYDVCEQPPPLNILTPYRDDGKEGLKFYTNPSYFFDLWKEKMLQDTEDKRKEKRKQKQKNLDRPHEPEKVPRAPHDRRREWQKLAQGPELAEDDANLLHKHIEVANGPASHFETRPQTYVDHMDGSYSLSALPFSQMSELLTRAEERVLVRPHEPGSGSPMHGAGDAKPIPTCISSATGLIENRPQSPATGRTPVFVSPTPGSGSPPLPSALSTSSLRASMTSTGSGSVPGSGSPPATALQAPAVGSGSAPLQIAPGVLHPAGSGIAGSLVQPSPPVARAAPVCETVPVHPLPQGEVQGLPPGSGSPPLGSGGIRPSSPVTVTALAHPPSGLHPTPSTAPGPHVPLMPPSPPSQVIPASEPKRHPSTLPVISDARSVLLEAIRKGIQLRKVEEQREQEAKHERIENDVATILSRRIAVEYSDSEDDSEFDEVDWLE
Regarding B3, the Kd came to 813 µM with Human profilin 1, P07737 and 138 µM in experiment [1] (modeled as a 1:1 interaction).

B4: WAVE1 (P): human WAVE1 [277–488], wild-type proline-rich domain, Q92558 P279G; P280S; P281G; P282S; P325G; P326S; P327G; P328S; P348G; P349S; P350G; P351S; … (protein)
chain: MPLVKRNIDPRHLCHTALPRGIKNELECVTNISLANIIRQLSSLSKYAEDIFGELFNEAHSFSFRVNSLQERVDRLSVSVTQLDPKEEELSLQDITMRKAFRSSTIQDQQLFDRKTLPIPLQETYDVCEQPPPLNILTPYRDDGKEGLKFYTNPSYFFDLWKEKMLQDTEDKRKEKRKQKQKNLDRPHEPEKVPRAPHDRRREWQKLAQGPELAEDDANLLHKHIEVANGPASHFETRPQTYVDHMDGSYSLSALPFSQMSELLTRAEERVLVRPHEPGSGSPMHGAGDAKPIPTCISSATGLIENRPQSPATGRTPVFVSPTPGSGSPPLPSALSTSSLRASMTSTGSGSVPGSGSPPATALQAPAVPPPPAPLQIAPGVLHPAGSGIAGSLVQPSPPVARAAPVCETVPVHPLPQGEVQGLPPGSGSPPLGSGGIRPSSPVTVTALAHPPSGLHPTPSTAPGPHVPLMPPSPPSQVIPASEPKRHPSTLPVISDARSVLLEAIRKGIQLRKVEEQREQEAKHERIENDVATILSRRIAVEYSDSEDDSEFDEVDWLE
In experiment [1] (setting [2]), B4 had a Kd of 145 µM.

B5: WAVE1 (P): human WAVE1 [277–488], wild-type proline-rich domain, Q92558 P325G; P326S; P327G; P328S; P348G; P349S; P350G; P351S; P354G; P355S; P356G; P357S; … (protein)
chain: MPLVKRNIDPRHLCHTALPRGIKNELECVTNISLANIIRQLSSLSKYAEDIFGELFNEAHSFSFRVNSLQERVDRLSVSVTQLDPKEEELSLQDITMRKAFRSSTIQDQQLFDRKTLPIPLQETYDVCEQPPPLNILTPYRDDGKEGLKFYTNPSYFFDLWKEKMLQDTEDKRKEKRKQKQKNLDRPHEPEKVPRAPHDRRREWQKLAQGPELAEDDANLLHKHIEVANGPASHFETRPQTYVDHMDGSYSLSALPFSQMSELLTRAEERVLVRPHEPPPPPPMHGAGDAKPIPTCISSATGLIENRPQSPATGRTPVFVSPTPGSGSPPLPSALSTSSLRASMTSTGSGSVPGSGSPPATALQAPAVGSGSAPLQIAPGVLHPAGSGIAGSLVQPSPPVARAAPVCETVPVHPLPQGEVQGLPPGSGSPPLGSGGIRPSSPVTVTALAHPPSGLHPTPSTAPGPHVPLMPPSPPSQVIPASEPKRHPSTLPVISDARSVLLEAIRKGIQLRKVEEQREQEAKHERIENDVATILSRRIAVEYSDSEDDSEFDEVDWLE
Molecule B5 gave a Kd in experiment [1] (setting [2]) of 51 µM.

B6: WAVE1 (P): human WAVE1 [277–488], wild-type proline-rich domain, Q92558 P279G; P280S; P281G; P282S; P325G; P326S; P327G; P328S; P369G; P370S; P371G; P372S; … (protein)
chain: MPLVKRNIDPRHLCHTALPRGIKNELECVTNISLANIIRQLSSLSKYAEDIFGELFNEAHSFSFRVNSLQERVDRLSVSVTQLDPKEEELSLQDITMRKAFRSSTIQDQQLFDRKTLPIPLQETYDVCEQPPPLNILTPYRDDGKEGLKFYTNPSYFFDLWKEKMLQDTEDKRKEKRKQKQKNLDRPHEPEKVPRAPHDRRREWQKLAQGPELAEDDANLLHKHIEVANGPASHFETRPQTYVDHMDGSYSLSALPFSQMSELLTRAEERVLVRPHEPGSGSPMHGAGDAKPIPTCISSATGLIENRPQSPATGRTPVFVSPTPGSGSPPLPSALSTSSLRASMTSTPPPPVPPPPPPPATALQAPAVGSGSAPLQIAPGVLHPAGSGIAGSLVQPSPPVARAAPVCETVPVHPLPQGEVQGLPPGSGSPPLGSGGIRPSSPVTVTALAHPPSGLHPTPSTAPGPHVPLMPPSPPSQVIPASEPKRHPSTLPVISDARSVLLEAIRKGIQLRKVEEQREQEAKHERIENDVATILSRRIAVEYSDSEDDSEFDEVDWLE
As to B6, the Kd in experiment [1] (setting [2]) came out at 12 µM.

For the origin of these results see PMC5753033.
